According to publication PMC10192925, “Rapid, scalable assay of amylin-β amyloid co-aggregation in brain tissue and blood” (The Journal of Biological Chemistry, 2023):

Biological target: T1, Aβ40 synthetic peptide (human, UniProt P05067 672-711)
T1 construct: β amyloid, the isoform ending at the 40th amino acid (Aβ40), cut product of the amyloid precursor protein; numbers count on: the Aβ peptide; Pre-incubated at 16.2 uM at 37 C for 2 h before mixing 1:1 (volume) with amylin and incubating 24 h at 37 C; also called β amyloid; human Aβ40; source: synthetic peptide; bought: Anaspec (AS-24235)
Assay: ELISA; amylin-Aβ sandwich ELISA on solutions of peptides co-incubated at 37 C for 24 h in PBS with 0.05% sodium azide (30 uM amylin and 16.2 uM Aβ mixed 1:1); capture by the polyclonal anti-amylin P2 antibody, detection by an HRP-conjugated anti-Aβ antibody
Settings: both partners purified

B1: human amylin synthetic peptide (peptide, UniProt P10997 34-70, looked up)
peptide: KCNTATCATQRLANFLVHSSNNFGAILSSTNVGSNTY
notes: Amylin (islet amyloid polypeptide), human, synthetic peptide; Pre-incubated at 30 uM in PBS with 0.05% sodium azide at 37 C for 5 h before mixing with Aβ40; also called islet amyloid polypeptide; source: synthetic peptide; bought: Anaspec (AS-60254-1)
binding result: binds
